# Several values for one entry are separate records, joined by “and”; a condition that tells them apart may be missing. Equal values may be shown once. Marks after values point to notes of the source that are not given here.
# B1: IFN-γ: murine recombinant γ-interferon (protein, UniProt P01580 23-155, looked up)
# Interferon gamma: HGTVIESLESLNNYFNSSGIDVEEKSLFLDIWRNWQKDGDMKILQSQIISFYLRLFEVLKDNQAISNNISVIESHLITTFFSNSKAKKDAFMSIAKFEVNNPQVQRQAFNELIRVVHQLLPESSLRKRKRSRC
# B2: Purified protein: purified murine fg12 fusion protein with six histidine residues and an enterokinase site at the N-terminus, baculovirus expressed (protein)
# chain: VEEHNLTEGLEDASAQAACPARLEGSGRCEGSQCPFQLTLPTLTIQLPRQLGSMEEVLKEVRTLKEAVDSLKKSCQDCKLQADDHRDPGGNGGNGAETAEDSRVQELESQVNKLSSELKNAKDQIQGLQGRLETLHLVNMNNIENYVDNKVANLTVVVNSLDGKCSKCPSQEHMQSQPVQHLIYKDCSDHYVLGRRSSGAYRVTPDHRNSSFEVYCDMETMGGGWTVLQARLDGSTNFTREWKDYKAGFGNLEREFWLGNDKIHLLTKSKEMILRIDLEDFNGLTLYALYDQFYVANEFLKYRLHIGNYNGTAGDALRFSRHYNHDLRFFTTPDRDNDRYPSGNCGLYYSSGWWFDSCLSANLNGKYYHQKYKGVRNGIFWGTWPGINQAQPGGYKSSFKQAKMMIRPKNFKP
# modifications: left off: small tags and cut ends
# notes: purified murine fg12 fusion protein with six histidine residues and an enterokinase site at the N-terminus, baculovirus expressed
# How the values were obtained:
# [1] = test system: DBA/2-mated CBA/J mice; assay: Fetal loss in DBA/2-mated CBA/J mice: role of asialoGM1+ NK cells, macrophages and cytokines; assay type: in vivo, mouse
# Excerpt: Inbred mice of strains CBA/J and DBA/2 were obtained from Iffa Credo. France C57B1/6J and DBA/2 mice were obtained from the Jackson Laboratories, Bar Harbor, Me. C57B1/6 mice with knockout of the interferon response element IRF-1 were generated as previously described (Duncan, G. S. et al., J. Exp. Med. 184:2043 (1996)) and bred in at the Ontario Cancer Institute, Toronto. CBA/J mice were maintained in the Paris colony under conventional open-top wire cage conditions with food and water ad lib and a 12 hour light-dark cycle. Mice in the Toronto colony were maintained in a barrier facility. Female CBA/J, C57B1/6 or C57B1/6 IRF−/− mice were mated by overnight cohabitation with a DBA/2J male, and the morning of sighting a vaginal plug was defined as day 0.5 of pregnancy.
# Pregnant CBA/J mice were depleted of NK cells by injection of 1 ml rabbit IgG anti-asialoGM1 antibody (Immunocorp, Richmond, Va.) ip on day 6.5 of gestation; phosphate buffered saline (PBS) was used as a control as it has been previously shown to be equivalent to non-immune rabbit IgG (Clark, D. A., Crit. Rev. Immunol. 11:215 (1991)). Macrophage depletion was performed by ip injection of 100 mg/kg silicon dioxide twice a week for 4 weeks prior to mating, as described in Baek, H-S. and J-W. Yoon (J. Virol. 64:5708 (1990)). Affinity-purified rabbit IgG neutralizing antibody to mouse procoagulant (fg12-prothombinase) was prepared as previously described (Ding, J. W. et al., J. Exp. Med. (1997); Dackiw, A. P. B. et al., Arch. Surg. 131:1273 (1996)); the mice were given a ip injection of 200 μl of a 1/50 dilution of a 5.5 mg/ml preparation of anti-prothombinase or control rabbit antibody each day beginning on day 3.5 of gestation. Hormonal support of pregnancy sufficient to replace ovarian function was provided in some experiments by injecting 6.7 ng 17 β-estradiol+1 mg progesterone in 0.1 ml oil im daily beginning on day 4.5 of gestation (Michael, S. D. et al., Biol. Reprod. 12:400 (1975)). One hundred […] of rat monoclonal IgG2b anti-mouse granulocyte antibody RB6-8C5 (Pharmingen) (Stoppacciaro, A. et al., J. Exp. Med. 178:151 (1993)) or isotype control was injected ip on either day 6.5 or on day 8.5 of pregnancy. TNF-α (6 and R&D Systems) 1000 or 2000 units and/or murine recombinant γ-interferon (6 and R&D Systems) 1000 units was injected ip on day 7.5 of pregnancy. On day 13.5 of pregnancy, the mice were sacrificed and the number of resorbing and healthy embryos was counted. In some experiments, the uteri were snap frozen, 5 micron sections were cut, and the tissues were stained with rat monoclonal F4/80 antibody (Caltag, Tebu, France) to macrophages. Briefly, tissue sections were incubated with a 1/30 dilution of F4/80 in PBS for 30 minutes, and binding was detected using peroxidase-streptavidin with biotin-labelled anti-rat IgG2b second antibody (Secrotec) (Kachkache, M. et al., Biol. Reprod. 45:860 (1991)).
# Four to ten mated mice per treatment group were used. The significance of differences in the pooled resorption rate was tested by c^2 of Fisher's Exact test where appropriate.
# [2] = test system: recalcified platelet-poor normal human plasma; assay: One-stage clotting assay (procoagulant activity, PCA); assay type: biochemical
# Description: This assay for fg12 prothrombinase was used to directly measure procoagulant activity. High 5 cells infected with recombinant virus expressing the mfg12 fusion protein were subjected to cycles of freeze thawing. They were then assayed for their ability to accelerate the spontaneous clotting time of recalcified platelet-poor normal human plasma as previously described (Levy & Edgington, 1980). Results were quantitated by comparison with serial dilutions of standard rabbit brain thromboplastin. Activities from cells infected with the recombinant virus were compared with those uninfected and wild-type virus infected, and with the purified protein alone. Proteins involved in the coagulation pathway require a phospholipid bilayer for functional activity; therefore purified protein was reconstituted into […] to determine their PCA activity. Additional PCA assays were performed with human plasma deficient in coagulation factors II, V, VII, VIII, X, and XII to determine the nature (factor dependence) of the expressed PCA.
# [3] = test system: 125I-prothrombin; assay: Prothrombin cleavage assay; assay type: biochemical; conditions: FIG. 22
# Description: To determine if the expressed fusion protein acts as a direct prothrombinase, the prothrombin cleavage assay was performed as previously described (Schwartz et al., 1982). 125I-prothrombin was incubated with High 5 cells, both infected or uninfected with the recombinant virus. Purified mfg12 fusion protein was also studied to determine its ability to cleave prothrombin. Human Factor Xa in the presence of Russell's viper venom (RVV) was used as a positive control. Samples were run on 10% SDS-PAGE and analyzed by autoradiography for 125I-prothrombin and their cleavage products.
# [4] = Expt 1, anti-asialoGM1 pretreated (NK depleted) mice, 1000 u day 7.5
# [5] = Expt 1, anti-asialoGM1 pretreated (NK depleted) mice, 2000 u day 7.5
# [6] = Expt 1, day 6.5 PBS, 1000 u ip day 7.5, day 13.5 assay
# [7] = Expt 1, day 6.5 PBS, 2000 u ip day 7.5, day 13.5 assay
# [8] = Expt 2, anti-asialoGM1 pretreated (NK depleted) mice, 1000 u IFN-γ, TNF-α 1000 u or 2000 u pooled
# [9] = Expt 2, day 6.5 PBS, 1000 u IFN-γ, TNF-α 1000 u or 2000 u pooled, day 7.5
# [10] = Table 9, 20 ng added to H5 cells + RV
# [11] = Table 9, 100 ng added to H5 cells + RV
# [12] = Table 9, 3 μg reconstituted into H5 cells
# [13] = Table 9, purified protein 3 μg alone
molecule,measurement,setting,value
TNF-α,% fetal losses,[1]; [4],16%^e
same,resorptions/total,[1]; [4],12/63
same,% fetal losses,[1]; [5],22%^e
same,resorptions/total,[1]; [5],12/55
same,% fetal losses,[1]; [6],72%^b
same,resorptions/total,[1]; [6],43/60
same,% fetal losses,[1]; [7],89%^c
same,resorptions/total,[1]; [7],57/64
B1,% fetal losses,[1]; [8],12%^e
same,resorptions/total,[1]; [8],12/98
same,% fetal losses,[1]; [9],85%^g
same,resorptions/total,[1]; [9],79/93
B2,PCA,"[2]; Table 7, purified protein 3 μg, uninfected High 5 cells <1",<1 Miliunits/2 × 10^6 cells
same,PCA Time,"[2]; Table 7, purified protein 3 μg, uninfected High 5 cells >240",220 s
same,PCA Milliunits,[2]; [10],1254 mU/2 × 10^6 cells
same,PCA Time,[2]; [10],57 s
same,PCA Milliunits,[2]; [11],1543 mU/2 × 10^6 cells
same,PCA Time,[2]; [11],54 s
same,PCA Time,"[2]; Table 9, 3 μg added to H5 cells + RV (printed for two lines)",50 s and 34 s
same,PCA Milliunits,[2]; [12],3634 mU/2 × 10^6 cells
same,PCA Time,[2]; [12],42 s
same,PCA Milliunits,[2]; [13],<1 mU/2 × 10^6 cells
same,PCA Time,[2]; [13],220 s
same,PCA after reconstitution of purified protein into insect cells,[2]; preliminary results,partial PCA activity recovery
same,PCA detected,[2]; purified soluble protein alone,no activity
same,prevention of PCA expression by cells infected with recombinant virus,[2]; soluble mfg12 protein added to cell lysate,incapable of preventing the clotting induced by the cell lysate
same,cleavage of 125I-prothrombin (SDS-PAGE autoradiography),[3],no prothrombin cleavage

# — US6805863B2, “Methods of modulating immune coagulation” (Trillium Therapeutics Inc., priority 1997, dated 2004)
